According to PMC8805405 (Journal of Nanobiotechnology, 2022):
Changes are numbered by the printed parent chain. Like-named read-outs stand apart in the source and are kept apart here. Each block holds one binder with its values, some of them ahead of it.

Target: T1, recombinant human TNF-α (Homo sapiens, UniProt P01375)
T1 construct: tumor necrosis factor alpha, human, recombinant; also called tumor necrosis factor (TNF)-α; source: bought: R&D Systems
Test: BLI; BLItz; human TNF-α (5 μg/mL in 10 mM acetate, pH 5) immobilised on AR2G biosensors by EDC/s-NHS; various concentrations of antibody at room temperature; global fit, BLItz Pro 1.2

T1 sequence (P01375 77-233): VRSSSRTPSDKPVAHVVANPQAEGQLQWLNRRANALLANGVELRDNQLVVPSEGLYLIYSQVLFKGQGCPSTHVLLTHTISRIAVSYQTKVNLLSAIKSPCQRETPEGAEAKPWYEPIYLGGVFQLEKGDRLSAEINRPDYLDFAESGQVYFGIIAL

Kd: 17.7 nM
koff: 0.000475 s⁻¹
kon: 26800 M⁻¹ s⁻¹
B1: humanized anti-TNF-α mAb C5 (C + b) (antibody, V domains shown)
VH: EVQLVESGGGLVKPGGSLRLSCAASGFTFSNHWMNWVRQAPGKGLEWVGEIRSKSINSATHYAAPVKGRFTISRDDSKNTLYLQMNSLKTEDTAVYYCTRNYYGSTYDYWGQGTTVTVSS
VL: EIVLTQSPDFQSVTPKEKVTITCRASQSIGSSLHWYQQKPDQSPKLLIKYASQSFSGVPSRFSGSGSGTDFTLTINSLEAEDAATYYCHQSSSWPFTFGQGTKLEIK

Kd (both partners purified): 5.5 nM
koff (both partners purified): 0.00015 s⁻¹
kon (both partners purified): 27200 M⁻¹ s⁻¹
B2: humanized anti-TNF-α mAb C3 (B + b) (antibody, V domains shown)
VH: B1 VH
VL: B1 VL with S28F, S92H
notes: VH grafting condition b (Remicade CDRs on human germline IGHV3-15*07-JH5); as the heavy chain of m4; heavy-chain constant region; VL grafting condition B (Remicade CDRs on human germline IGKV6-21*01-JK2); light-chain constant region; source: Expi293, transfected, purified (protein A sepharose)

Kd (both partners purified): 0.935 nM
koff (both partners purified): 0.000134 s⁻¹
kon (both partners purified): 143000 M⁻¹ s⁻¹
B3: humanized anti-TNF-α mAb C1 (A + a) (antibody, V domains shown)
VH: B1 VH with A64E, P65S
VL: B1 VL with S28F, I29V, L33I, Q53E, F55M, H89Q, S92H
notes: VH grafting condition a (Remicade CDRs on human germline IGHV3-15*07-JH5); heavy-chain constant region; VL grafting condition A (Remicade CDRs on human germline IGKV6-21*01-JK2); light-chain constant region; source: Expi293, transfected, purified (protein A sepharose)
